The target of test [1] is His6-Prp43 (S. cerevisiae) (UniProt P53131).
The target is the same in test [2]. This is another data set of the same source.

Sequence of His6-Prp43 (S. cerevisiae) (P53131 whole entry): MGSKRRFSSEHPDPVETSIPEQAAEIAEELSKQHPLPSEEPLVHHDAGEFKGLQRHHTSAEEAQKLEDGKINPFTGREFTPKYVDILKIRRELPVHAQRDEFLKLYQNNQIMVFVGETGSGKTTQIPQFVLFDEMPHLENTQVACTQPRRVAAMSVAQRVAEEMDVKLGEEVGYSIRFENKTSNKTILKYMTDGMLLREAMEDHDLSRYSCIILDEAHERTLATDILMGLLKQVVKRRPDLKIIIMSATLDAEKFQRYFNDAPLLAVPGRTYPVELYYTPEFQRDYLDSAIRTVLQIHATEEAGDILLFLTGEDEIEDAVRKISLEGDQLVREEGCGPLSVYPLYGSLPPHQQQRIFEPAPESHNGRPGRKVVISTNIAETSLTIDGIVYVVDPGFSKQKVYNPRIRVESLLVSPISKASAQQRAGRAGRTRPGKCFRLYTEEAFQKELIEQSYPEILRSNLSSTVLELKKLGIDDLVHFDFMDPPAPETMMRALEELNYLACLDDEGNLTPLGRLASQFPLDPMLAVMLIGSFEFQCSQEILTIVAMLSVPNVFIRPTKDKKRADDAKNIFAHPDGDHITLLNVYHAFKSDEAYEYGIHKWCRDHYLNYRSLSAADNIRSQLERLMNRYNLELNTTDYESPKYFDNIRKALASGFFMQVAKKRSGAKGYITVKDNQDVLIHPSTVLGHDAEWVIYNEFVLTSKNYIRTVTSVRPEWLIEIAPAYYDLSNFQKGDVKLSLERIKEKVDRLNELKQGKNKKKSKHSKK

In test [1], GST-Pxr1^G (domain or fragment) returned an ATPase activity of the Prp43-P^G fusion against Prp43 with an equimolar amount of Pxr1^G of 2 fold. The substance GST-Tma23^G (domain or fragment) returned an ATPase activity of the Prp43-T^G fusion against Prp43 with an equimolar amount of Tma23^G in test [1] of 30 fold. Moreover, the stimulation of Prp43 ATPase activity by Tma23^G added at a 1:1 or 10:1 molar ratio (NADH-coupled assay, 2.5 mM ATP) in test [2] was 3 fold.

The values are drawn from paper PMC11584650, “An inhibitory segment within G-patch activators tunes Prp43-ATPase activity during ribosome assembly” (Nature Communications, 2024).
